Data taken from patent US20250027068.
Residue numbers refer to the chain shown, from its start.

B1: PRT-414 (protein)
chain: MTITSVWTKGVTPPTPEDFRYNNEDVLHAPYVANQGWYDITKTFDGKDNLLCGAATAGNMLHWWFDQNKEEIERYLKKHPEKQKIIFGNQELFDVKAAIDTKDSQTNSKLFNYFRDKAFPNLSARQLGVMPDLVLDMFINGYYLNLGKTQSTDVNRPYQDKDKRGGIFDAVFTRGDQTTLLTARHDLKNKGLNEISDLIKQELTEGKALALSHTYANVRINHVINLWGADFDAEGNLIAIYVTDSDANASIGMKKYFVGVNANGKVAISAKKIEGDNIGAQVLGLFTLSTGQDIWQKLS
B2: PRT-422 (protein)
chain: B1 chain with G88N, A249P
B3: PRT-437 (protein)
chain: MSQTEDSESLQRLRDIEDFQAEKKKQNVVYTKWLDGVDVKDHDFRKIVDGNEAYYATPLLNGRGFYDINKDFNRDSDKCAAAVAANMFHYWLDRNRDNVDRFLRQNPEKHGIIELPDGQLKLSDFLNTYESDDGYRDKSKLFDFISNNFNGPVWTDKLLDNYINGYAYNYKYGRTIEDPTKNTSKINFFKEVFNEKILTNNHSIRNQNEFSVLLSEALYTGKAIGLSYGPAGLRHSLGHIISVWGADLDADGNVVAIYVTDSDDKKLTIGDERVGLKRYKISTDDEGRLRLTAYEETHNTGGQIRGLWTLDTGKQAWADYFDKTEQTGTDQAEQ
B4: PRT-383 (protein)
chain: MVTSVWTKGVTPPTNFTYGEDVLHAPYVANQGWYDITKTFNGKDDLLCGAATAGNMLHWWFDQNKEQIENYLKKHPEKQKINFNGEQMFDVKEAIDTKDSQLDSKLFDYFKEKAFPYLSTKHLGVFPDHVIDMFINGYRLSLTNHGPTPVKRGSKDPRGGIFDAVFTRGDQSKLLTNRHDFKEKTLKEISDLIKQELTEGKALGISHTYANVRINHVINLWGADFDAEGNLEAIYVTDSDSNASIGMKKYFVGVNSNGKVAISAKEIEEDNIGAQVLGLFTLSTGQDIWNQTN
B5: PRT-391 (protein)
chain: B4 chain with D108E, P157K

Target: pooled human IgG (human IgG1, 2, 3 and 4)

Row | Protein | Enzyme Activity Endpoint Assay (purified): Fab′2 | Enzyme Activity Endpoint Assay (purified): Fc | Enzyme Activity Endpoint Assay (purified): IgG | Enzyme Activity Endpoint Assay (purified): scIgG | Enzyme Activity Endpoint Assay: Fab′2 | Enzyme Activity Endpoint Assay: Fc | Enzyme Activity Endpoint Assay: IgG | Enzyme Activity Endpoint Assay: scIgG
1 | B1 | 496 ng/µL | 341 ng/µL | 77 ng/µL | 129 ng/µL | 496 ng/µL | 341 ng/µL | 77 ng/µL | 129 ng/µL
2 | B2 | 494 ng/µL | 348 ng/µL | 69 ng/µL | 136 ng/µL | 494 ng/µL | 348 ng/µL | 69 ng/µL | 136 ng/µL
3 | B3 | 445 ng/µL | 306 ng/µL | 0 ng/µL | 263 ng/µL | 445 ng/µL | 306 ng/µL | 0 ng/µL | 263 ng/µL
4 | B4 | 581 ng/µL | 379 ng/µL | 0 ng/µL | 230 ng/µL | 581 ng/µL | 379 ng/µL | 0 ng/µL | 230 ng/µL
5 | B5 | 498 ng/µL | 361 ng/µL | 29 ng/µL | 192 ng/µL | 498 ng/µL | 361 ng/µL | 29 ng/µL | 192 ng/µL
